# In patent US20020049303A1 (OKLAHOMA MEDICAL RESEARCH FOUNDATION, published 2002):
# Where no end group is shown, it is not given here.
# B1: OM99-2: Glu-Val-Asn-Leu*Ala-Ala-Glu-Phe (peptide)
# peptide: EVNLAAEF
# modifications: also: Leu-Ala peptide bond replaced by hydroxyethylene isostere -CH(OH)-CH2-
# B2: OM99-1: Val-Asn-Leu*Ala-Ala-Glu-Phe (peptide)
# peptide: VNLAAEF
# modifications: also: Leu-Ala peptide bond replaced by hydroxyethylene isostere -CH(OH)-CH2-
# notes: also called OMR99-1
# Assays:
# [1] = target: T1, recombinant memapsin 2 (M2pd), auto-activated from pro-M2pd at pH 4.0 (human, UniProt P56817 25-419, limits assumed); test: Ki quoted for the inhibitor used in the crystal trials; assay not described at this place
# T1 construct: also called beta-secretase
# T1 sequence (P56817 25-419 limits assumed): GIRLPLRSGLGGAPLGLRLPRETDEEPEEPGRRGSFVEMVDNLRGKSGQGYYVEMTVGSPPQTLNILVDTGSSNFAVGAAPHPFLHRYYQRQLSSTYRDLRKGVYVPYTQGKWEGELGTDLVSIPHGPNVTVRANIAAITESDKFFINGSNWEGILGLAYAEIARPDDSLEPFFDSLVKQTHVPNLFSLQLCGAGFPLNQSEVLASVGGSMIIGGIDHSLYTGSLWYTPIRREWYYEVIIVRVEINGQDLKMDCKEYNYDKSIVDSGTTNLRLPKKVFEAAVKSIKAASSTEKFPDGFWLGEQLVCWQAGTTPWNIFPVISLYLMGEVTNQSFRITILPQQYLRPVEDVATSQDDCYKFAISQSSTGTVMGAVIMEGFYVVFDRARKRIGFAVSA
# [2] = target: T1, recombinant memapsin 2 (M2pd), …; test: comparison of Ki of the inhibitor without P4 Glu with that of OM99-2
# [3] = target: T1, recombinant memapsin 2 (M2pd), …; test: enzyme inhibition with a synthetic fluorogenic peptide substrate
# Protocol: Enzyme activity was measured as described above, but with the addition of either OM99-1 or OM99-2.
Binder,Ki [1] [nM],fold increase in Ki against OM99-2 [2] [fold],Ki [3] [nM]
B1,10,–,–
B2,–,10,30
